Data from the nanobody polyreactivity screen of Harvey et al. (2022).

assay: yeast display, Sf9 membrane polyspecificity reagent, FACS + sequencing; frameworks hold sequencing errors
Method in brief: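 Nanobodies from a synthetic yeast display library (Saccharomyces cerevisiae BJ5465), induced 36–48 hours with galactose, were stained 1 hour at 4 °C with 10% biotinylated, detergent-solubilized Sf9 membrane reagent, enriched on streptavidin microbeads, then FACS-sorted. Anti-HA (expression) and streptavidin (reagent binding) fluorescence set low and high (top ~1%) gates. Polyreactivity labels come from the gate of origin. Genes were colony-PCR amplified, MiSeq 2 × 250 sequenced and filtered by CDR length.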

Row | Sequence | polyreactivity (PSR sort gate)
1 | QVQLVESGGGLVQAGGSLRLSCACSGHTFSSYAIGWYRQAPGKERELVAAISVSATRTYYADSVKGRFTISRDNEKNTVYLQMNSLKPEDTAVYYFAARPVQFTYGYWGLGTQVTVSS | high polyreactivity
2 | QVQIVESGGVLDQAGGSLRLSCAATGSTFAKNAMGWYRQAPGKERELVAAITSGGSTYYADSVKGRFTISRDNAKNTVYLQMYSLKPEDTAVYYCAVDYPWDIFIYWVQNYDHWGHGTQVTVSS | high polyreactivity
3 | QVQLVESCGGLVQAGGSLRLSCAASGRIIRKYDMGWYRQAPGKERELVAAISGTGITYYADSVKGRFTISRDNAKNTVYLQMNSLKPEDTAVYYCARGSKPRAWSWAYPSATSIYDYLGQGTQVTVSS | low polyreactivity
4 | QVQLVETGGGLVQAGGSLRLSCAASGSTFPRYAMVWSRQAPGKESEYVAVNWSGGSTYYADSVKGRFTISRDNAKNTVYLQMNSLKPEDTAVYYCAAEYHTLSKYSGYATHDYWGQGTQVTVSS | low polyreactivity
5 | QVQLVESGGGLVQAGGSLRLSCAASGSIFWYNAMGWYRQAPGKERELVAAIDRSGGNTYYADSVKGRFTISRDNAKNTVYLQMNSLKPEDTAVYYCARRIGRTYRYVYWGQGTQVTVSS | high polyreactivity
6 | QVQLVESGGGLVQAGGSLRLSCAASGSTFDFNVMGWYRQAPGKERELVAAISSGSSTYYADSVKGRFTISRDNAKNTVYLQMNSLKPEDTAVYYCARRYQLVRTRYYYWGQGTQVTVSS | high polyreactivity
7 | QVQLVESGGGLVQAGGSLRLSCAASGTTISAYDMGRYRQAPGKEREMVAAITWIGGNTYYADSVKGRFTISRDNAKNTVYLQMNSLKPEDTAVYYCAAEEVPYDRDMDYWGQGTKVTVSS | low polyreactivity
8 | QVQLVESGGGLVQAGGSLRLSCAASGRTFIRYTMGWYRPAPGKERELVAAITSTGRTYYADSVKGRFTISRDNAKNTVYLQMNSLKPEDTAVYYCAAKQSWEGYDYWGQGTQVTVSS | low polyreactivity
9 | QVQLVESGGGLVQAGGSLRLSCAASGFTFTSNAMGWYRQAPGKEREFVADISNIGGDTTYADSVKGRFTISRDNAKNTVYLQMNSLKPEDTAVYYCNADFAFIENDYWGQGTQVTVSS | low polyreactivity
10 | QVQLVESGGGLVQAGGSLRLSCAASGSTFSSYVMGWDRQARGKERELVAAISSIGGSTYYADSVKGRFTISRDNAKNTVYLQMNSLKPEDTAVYYCAAEPPGSTYEGGYWGQGTQVTVSS | low polyreactivity
11 | QVQLVESGGGLVQAGGTLRLSCAASGSTFNEYAMGWYRQAPGKERELVAAIDERGGNTYYADSVKGRFTISRDNAKNTVYLQMNSLKPEDTAVYYCAADAYPYYQSYYPFEYWGQGTQVTVSS | low polyreactivity
12 | QVQLVESGGGLVQAGGILRLSCAASGFIFRKYAMGWYRQAPGKERELVAAINKSGGSTYYADSVKGRFTISRDNAKNTVYLQMNSLKPEDSAVYYCATVRTYRPPVRRGYWGQGTLVTVSS | high polyreactivity
13 | QGQLVESGGGLVQAGGSLRLSCAASGRTFNYYAMGWYREAPGKEWELGAAITNRGGSTYYADSVKGRFTISRDNAKNTVYLQMNSLKPEDTAVYYSAARGKYPSASGYTYSYGYWGQGTQVTVSS | high polyreactivity
14 | QVQLVESGGGLVQAGGSLRLSCAASGSIFKPYAMGWYRQAPGKERELVAAISRSGSTYYADSVKGRFTISRDNAKNSVYLQMNSLKPEVTAVFYCAAETQARWRRYDYWGQGSQVTVSS | low polyreactivity
15 | QVQLVESGGGLVQAGGSLRLSCAASGSIFYAYAMGWYRQAPGKEMELVAAIDTSGGRTYYADSVKGRFTISRDNAKNTVYLQLNSLKPEDTAVYYCDAECPCYNEHYYWGQGTQVTVSS | high polyreactivity
16 | QVQHVESGGGLVQAGGSLRLSCAASGRTFRSYAMGWYRQAPGKEREFVATITRRGGSTYYADSVKGRFTISRDNAKNTVYLQMNSLKPEDTAVYYCNAVVSSQEYDYWGQGTQVTVSS | high polyreactivity
17 | QVRLVETGGGLVQAGGSLRLSCAASGSIFLIYDMGWYRQAPGKEMELVAAISNSVGSTYADSVKGRFTMSRDNAKNTVYLQMNSLKPEDTAVYYCNADYGPIDGRGGYWGQGTQVTVSS | low polyreactivity
18 | QVQLVESGGGLVQAGGSLRLSCAASGSIFSPYAMGWYRQAPGKERELVAAIRWGGGGTYADSVKGRFTISRDNAKNTVYLQMNSLKPEDTAVYYCAARRRSRRGYDYWGQGTQVTVSS | high polyreactivity
19 | QVQLVESGGGLVQAGGSLRLSCAASGFIFVNYMGWYRQAPGKERELVAAISRGGSTNYADSVKGRFTISRDTAKNTVYLQMNSLKPEDTAVYYCAAETWYSGYTYDSCGQGTQVTVSS | low polyreactivity
20 | QVQLVESGGGLVQAGGSLRLSCAASGRTFNRYAMGWYRQAPGKERELVAAISWSGGRTYYADSVKGRFTISRDNAKNTVYLQMNSMIPEATAVYYCAKEAYFRYDYCGQGTQVTVSS | low polyreactivity
21 | QVQLVESGGGLVQAGGSLPLSCAASGLIINYYVMGWYRQAPGKERELVAANTISGGRSYYADSVKVRFTISRDNAKNTVYLQMKCLNPEDTAVYYCARRFGPYRKGYQSYGIYDYWGQGTHVTVSS | high polyreactivity
22 | QVQLVESGGGLVQAGGSLRLSCAASGRTFDANAMGWYRPAPGKERELVAAISSDGSTNYADSVKGRFTISRDNAKNTVYLQMNSLKPEDTAVYYCATDGKPLIRYDYDYWGQGTQVTVSS | high polyreactivity

Row | Sequence | polyreactivity (PSR sort gate)
23 | QVQLVESGGGLVQAGGSLRLSCAASGSTFPTYAMGWYRQAPGKERELVADITWSGGSTYYADSVKGRFTISRDNAKNTVYLQMNSLKPEDTAVYYCAAVFKAGSAYDYWGQGTQVTVSS | high polyreactivity
24 | QVQLVESGGGLVQAGGSLRLSCAASGSTLSYYAMGWYRQAPGKERELVAAISFSGGITYYADSVKGRFTISRDNAKNTVYLQMNSLKPEDTAVYYCNAEYQVYRAYVIWYDYWGQGTQVTVSS | high polyreactivity
25 | QVQLVESGGGLVLAGGRLRLSCAASGRIFTRYAMGCYRQAPGKERELVAVITRSGGSTYYADSVKGRFTISRDIAKNTVYLQMNSLKPEDTAVYYCAAKYYGEMYYWGQGTQVTVSS | low polyreactivity
26 | QVQLVESGGGLVQAGGSLRLSCAASGFTFPWYAMGWYRQAPGKERELVAAISIGTGRTYYADSVKGRFTISRDNAKNTVYLQMNSLKPEDTAVYYCAAEDQYYEDGYWGQGTQVTVSS | high polyreactivity
27 | QVHLVESGGGLVQAGGSLRLSCAASGFIFWGYAMGWYRPAPVHERELVAAISSDGDTYYADSVKGRFTISLDNAKNTVYLQMNCRKPEESAVYYCNADLYGGGDNSVISGLNGEYEYWGQGTQVTVSS | low polyreactivity
28 | QVQLVESGGGLVQAGGSLRLSCAATGRTFVTYAMGWYRQAPGKEREFVAAITWSTGTSTYYADSVKGRFTISRDNAKNTVFLQIHSLNQEDTAVDYCHADSQEWIWLYEGYDYWGQGTQVSVSS | low polyreactivity
29 | QVQLVESGGGLVQAGGSLRLSCAASGRTFWSNDMGWYRQAPGKEREFVAVISRSGSTTYYADSVKGRFTISRDNAKNTVYLQMNSRKPEDTAVYYCAADRVRSYFSRYYSTPLDYYLGQGTQVTVSS | high polyreactivity
30 | QGQLVVSGGGLVQAGGSLRLSCAASGRISSSYAMGWYRQAPGKEREFVAAIRSSGGSTYYADSVKGRFTISRDYAKNTVYLQMISLKPVDTAVYYCNKVGFYQSRKYYYWGQATQVTVSS | high polyreactivity
31 | QVQLVESGGGLVQAGGSLRLSCAASGSIFRPYAMGWYRQAPGKERELVAAITWSGGRTYYADSVKGRFTISRDNAKNTVYLQMNSLKPEDTAVYYCAADDSEGFDYWGQGTQVTVSS | high polyreactivity
32 | QVQLVESGGGLVQAGGSLRLSCAASGRTFYDYAMGWYRQAPGKEREFVARITYSGGGTYYADSVKGRFTISRDNAKHTVYLQMNSLKPEDTAVYYCARPFNRYLGLTRNGYTSDYWGQGTQVTVSS | high polyreactivity
33 | QVQLVESGGGLVQAGGSLRLSCASSGSTFYGNAMGWYRQAPGKERELVATISSGGSTDYADSVKGRFTISRDNAKNTVYLQMNSLKPEDTAVYYCATDNYLGYYYKDGVLDDYWGQGTQVTVSS | low polyreactivity
34 | QDQLVESGGGLVQAGGSLRLSCAASGRTFRYNAMGWYRQAPGKERELVAAISGRGSSTYYADSVKGRFTISRDNAKNTVYLQMNSLKPEETAVYYCAALPASVRRPGWHDYWGQGTQVTVSS | high polyreactivity
35 | QVQLVESGGGLVQAGGSLRLSCAASGRIFGVYAMGWYRQAPGKERELVAAITSSGGRTYYADSVKGRFTISRDNAKNTVYLQMNSLKPEDTAVYYCAALGWSRRGKFNYWGQGTQVTVSS | high polyreactivity
36 | QVQLVESGGGLVQAGGSLRLSCASSGRTSLGYVMGWYRQAPGKERELVAAITKSGGSTYYADSVKGRFTISRDNAKNTVYLQMNSQKPEDTAVYYCAARNPWSARYEYWGQGTQVTVSS | high polyreactivity
37 | QVQLVESGGGLVQAGGSLRLSCAASGITFRYYAMGWYRQAPGKERELVATISRGVRTNYADSVKGRFTISRDNAKNTVYLQMNSLKPEDTAVYYCNADYASARRYDYWGQGTQVTVSS | high polyreactivity
38 | QVQLVESGGGLVQAGGSLRLSCAASGSTFEFNDMGRYRPAPGKERELVASIRHSDGSRYYADSVKGRFTISRDNAKNTVYLQMIILKPEDTAVYDCNKAFQWSGGQVSYDYWGQGTQVTVSS | low polyreactivity
39 | QVQLVESGGGLVQAGGSLRLSCAASGRTFRENAMGSSRPAPGKERELVAAIRRSGGRTYYADSVKGRFTISRDNAKNTVYLQMHSLKPEDTAVSDCIAVADGYAFRRPYVTYYYWGQGTQVTVSS | low polyreactivity
40 | QVQLVESGGGLVQAGGSLRLSCAASGSIFANNGMGWYRQAPGKERELVARISKRGGSTYYADSVKGRFTFSRDNAKNTVYLQMNSLKPEDTAVYYCNVRSWWGYTGPYDYWGQGTQVTVSS | high polyreactivity
41 | QVQLVESGGGLVQAGGSLRLSCAASGSTFKIYAMGWYRQAPGKEREVVARITGRGGSTYYADSVKGRFTISRDNAKNTVYLQMNSLKPEDTAVYYCAAAKRYYSEMYWGQGTQVTVSS | high polyreactivity
42 | QVQLVESGGGLVQAGGSLRLSCAASGRIFSYYAMGWYRQAPGKERELVASISRSGGSTYYADSVKGRFTISRDNAKNTVYLQMNSLKPEDTAVYYCAAYKYVRSYPYDYWGQGTQVTVSS | low polyreactivity
43 | QVQLVESGGGLVQAGGSLRLSCAASGSTFGGNAMGWYRQAPGKERELVAAISSTGGSTYYADSVKGRFTISRDNAKNTVYLQMNSLKPEDTAVYYCAALYHWTYDYWGQGTQVTVSS | low polyreactivity
